What was measured:
[1] = biological target: T1, HNE peptide substrate H2, GRCR-PMAVVQSVP-RCRG (not fully specified)
T1 chain: GRCRPMAVVQSVPRCRG

[2] = biological target: T2, MMP-9 sensitive peptide (GPRSLSG-RRCG) linked ibuprofen (not fully specified)
T2 chain: GPRSLSGRRCG

B1: human neutrophil elastase (HNE) (protein)
chain: IVGGRRARPHAWPFMVSLQLRGGHFCGATLIAPNFVMSAAHCVANVNVRAVRVVLGAHNLSRREPTRQVFAVQRIFENGYDPVNLLNDIVILQLNGSATINANVQVAQLPAQGRRLGNGVQCLAMGWGLLGRNRGIASVLQELNVTVVTSLCRRSNVCTLVRGRQAGVCFGDSGSPLVCNGLIHGIASFVRGGCASGLYPDAFAPVAQFVNWIDSIIQ
In the case of B1, the “degradation of H2-M2 combinational hydrogel and release of PLGA particles over 24 hours” value [1] is reported as “H2 and M2 peptide substrates were preferentially cleaved by HNE and MMP-9 proteases respectively”, the “maximum cumulative drug release at 48 hours from the dual-responsive conjugate hydrogel, HNE alone (1 µg/ml)” value [2] is reported as “maximum cumulative drug release reached 24%, which was much lower than the release in enzyme MMP-9 solution” and the “specificity of protease-triggered ibuprofen liberation (FIG. 10B)” value [2] is reported as “the peptide sequence, GPRSLSGRRCG (SEQ ID NO: 20), as a spacer illustrated a good specificity toward MMP-9 compared to cathepsin B and human neutrophil elastase (HNE)”.

Reference: patent US20230039279
